Source: patent US20150232562A1 (Ablynx, published 2015)
Residue numbers refer to the chain shown, from its start.

B1: 11A13/1-125 (VHH)
VHH: EVQLVESGGGLVQAGDSLRLSCVASGGTFGSYAMGWFRQAPGKEREFVATIDWSGDTAFYADSVKGRFTISRDIANDVVYLQMNSLEPEDTAVYYCARNRQSGVASENLRLYTYWGQGTQVTVSS
notes: C-term myc-His6 tag
B2: 12D51/1-120 (VHH)
VHH: EVQLVESGGGLVQPGGSLRLSCAASGSAFSIKSMGWYRQAPGKQRELAAVIISSGTTTYADSVKGRFTISRDSAKNTVYLQMDSLKPEDTAVYVCNAVYVSTWGNGYDYWGQGTQVTVSS
notes: C-term myc-His6 tag
B3: 11A22/1-122 (VHH)
VHH: EVQLVESGGGLVQAGGSLRLSCAASGRTFSSYAMAWFRQAPGTEREFIAGIRWSDGSTYYADSVKGRFTISRDNAKNTVYLQMNSLKPEDTAVYYCAADFYVSTLAHEYDYWGQGTQVTVSS
notes: C-term myc-His6 tag
B4: 12D44/1-122 (VHH)
VHH: B3 VHH with E1K, D73A, S85G
notes: C-term myc-His6 tag
B5: 12E11/1-122 (VHH)
VHH: B3 VHH with T43K, I48V, A49G, N77I
notes: C-term myc-His6 tag
B6: 14H61/1-122 (VHH)
VHH: EVQLVESGGGLVQAGGSLRLSCAASGRTFSRFAMGWFRQAPGKEREFVAAVRWSDDYTYYADSVKGRFTISRDNAKNTVYLQMNSLSPEDTAVYYCAADEILATLPHEYDYWGQGTQVTVSS
notes: C-term myc-His6 tag
B7: 11B42/1-123 (VHH)
VHH: EVQLVESGGGLVQAGDSLRLSCAASGFTFSNHIMGWFRQAPGKERELIAHITWNGGSTYYADSVKGRFAISRDNALNTVYLQMNSLKPEDTAVYYCAARPSYSTNNVKSYRYWGQGTQVTVSS
notes: C-term myc-His6 tag
B8: 11A101/1-120 (VHH)
VHH: EVQLVESGGGLVQAGGSLRLSCAASGRTFNAMGWFRQAPGKEREFVAAISRSPGVTYYADSVKGRFTTSRDNAKNTVYLQMNDLKPEDTAVYYCAADFYLATLAHEYDYWGQGTQVTVSS
notes: C-term myc-His6 tag
B9: 11A71A/1-116 (VHH)
VHH: EVQLVESGGGLVQPGGSLRLSCAASGNIDGIITMGWYRQRPGKPREWVGTINSGGDTNYAGSVKGRFTIARDDAKNTMYLQMNGMKPEDTAVYYCKMNRAGIYEYWGQGTQVTVSS
notes: C-term myc-His6 tag
B10: 12C61/1-126 (VHH)
VHH: EVQLVESGGGLVQAGGSLRLSCAASGRTFSSNAMAWFRQAPGNERELVSAIGWSGASTYYIDSVEGRFTISRDNAKNTVYLQMNSLKPEDTAVYYCAASRYSGGVATARRSEYHYWGQGTQVTVSS
notes: C-term myc-His6 tag
B11: 22B910/1-121 (VHH)
VHH: EVQLVESGGGLVQPGGSLPLSCAASGSIFRMNDMGWYRQAPGKQRERVATLTSAGNTNYADSVKGRFTISGDDARNTVYLQMNSLNPEDTAVYYCNAKVVVAVEGAKYDYWGQGTQVTVSS
notes: C-term myc-His6 tag
B12: 27B3 (VHH)
VHH: EVQLVESGGGLVQAGGSLTLSCTASETTVRIRTMAWYRQPPGNQREWVATIGSNGFATYPDSVKGRFTISRDNAKNTVYLQMNSLKPEDTAVYYCRDINRDIWGQGSQVTVSS
notes: C-term myc-His6 tag
B13: 30D10 (second entry, SEQ ID NO: 2204) (VHH)
VHH: B12 VHH
notes: C-term myc-His6 tag
B14: 27D6 (VHH)
VHH: B12 VHH
notes: C-term myc-His6 tag
B15: 27E5 (VHH)
VHH: B12 VHH
notes: C-term myc-His6 tag
B16: 12C52/1-118 (VHH)
VHH: EVQLVESGGGLVQAGGSLRLSCAVSGGTFESDTMAWFRQAPGKEREFVARVSWIRTTYYSDSVKGRFTISKDNAKNTVYLQMNSLKPEDTAVYYCAAQTLGRSLYDYWGQGTQVTVSS
notes: C-term myc-His6 tag
B17: 14H12/1-125 (VHH)
VHH: EVQLVESGGGLVQAGGSLRLSCIASERTFSSAGVGWFRQAPGKERDFVAAISWNGVTIYYADSVKGRFTISRDNAKNTVYLQMNSLKPEDTAVYYCAARINYSVLTTTSSSYHYWGQGTQVTVSS
notes: C-term myc-His6 tag
B18: 47G11 (VHH)
VHH: EVQLVESGGGLVQPGGSLRLSCAASGRIFYPMGWFRQAPGKEREFVAAIGSGDIITYYADSVKGRFTISRDNAKNTVYLQMNSLKPEDTAVYYCASSRDYSRSRDPTSYDRWGQGTQVTVSS
notes: C-term myc-His6 tag
B19: 46D4 (VHH)
VHH: EVQLVESGGGLVQPGGSLRLSCAASGFIFDDYAMSWVRQAPGKGLEWVSSINWSGTHTDYAEDMKGRFTISRDNAKKTLYLQMNSLQSEDTAVYYCAKGWGPAVTSIPVATLGTQVTVSS
notes: C-term myc-His6 tag
B20: 21A61/1-125 (VHH)
VHH: EVQLVESGGGLVQAGDSLRLSCVASGDSFNTYTMGWFRQAPGKEREFVAAIRWSGGTTFYGDSVKGRFTISRDYAKNTWYLQMNTLKPEDTAAYYCAAVATYSRNVGSVRNYDYWGQGTQVTVSS
notes: C-term myc-His6 tag
B21: 11A121/1-126 (VHH)
VHH: EVQLVESGGGLVQAGGSLRLSCVVSEGTFSSYSMGWFRQAPGKDREFVSAITWNGTRTYYRDSVKGRFTISRDNAKNTVQLQMNSLKPEDTAVYYCAVSQPLNYYTYYDARRYDYWGQGTQVTVSS
notes: C-term myc-His6 tag
B22: 22B101/1-123 (VHH)
VHH: EVQLVESGGGLVQTGGSLRLSCAASGPTFSDYAIGWFRQAPGKEREFVAAISSSGISTIYGDSVKGRFDISRDNAKNTVYLQMNRLKPEDTAVYYCAARLFMATPNQGQYYYWGQGTQVTVSS
notes: C-term myc-His6 tag
B23: 21A92/1-127 (VHH)
VHH: EVQLVESGGGQVQAGGSLRLSCTESGRAFNTRAMGWFRQAPEKEREFVAGITMSGFNTRYADSVKGRFTISRDNAKGTVYLQMSSLKPEDTAVYYCAADSITDRRSVAVAHTSYYYWGQGTQVTVSS
notes: C-term myc-His6 tag
B24: 11A111/1-126 (VHH)
VHH: EVQLVESGGGLVQAGGSLGLSCAAAGRTFSSSLMGWFRQAPGKEREFVAAITDNGGSTYYADSVKGRFTISRDNAKNSVYLQMNSLKPEDTAIYYCAARRSGYYSLSTSPHQYAYWGQGTQVTVSS
notes: C-term myc-His6 tag
B25: 13G71/1-124 (VHH)
VHH: EVQLVESGGGLVQAGGSLRLSCAASGRAFSSYAMGWFRQAPGKERDFVAAITSSGSTNYADSVKGRFTISRDNAKNTVYLQMNSLKPEDTAVYYCGARVNYAAYSRLEHDYHYWGQGTQVTVSS
notes: C-term myc-His6 tag
B26: 13E111/1-124 (VHH)
VHH: EVQLVESGGGLVQAGSSLRLSCALSGRTFSDYAIGWFRQAPGKEREFVAAISGWSGGTTNYADSVKGRFTISRDNGKNTVDLRMNSLKPEDTAVYYCAARPAVVHTRKESYPYWGQGTQVTVSS
notes: C-term myc-His6 tag
B27: 13G93/1-123 (VHH)
VHH: EVQLVESGGGLAQAGDSLRLSCVDSGSSFSAYAMGWFRQAPGKEREFVAAVSWDGRNTYYADSVKGRFTISRDNAKNTLYLQTTSLRPEDTGVYYCAEDKQSGVSVNPKYAYWGQGTQVTVSS
notes: C-term myc-His6 tag
B28: 13G111/1-123 (VHH)
VHH: EVQLVESGGGLVQAGGSLRLSCAASGRTFSSYAMGWFRQAPGKERAFVAAIRWSGGNTYYADSVKGRFTISRDNAKNTVYLQMNSLKPEDTAVYYCAADTFTLSTLSHEYDYWGQGTQVTVSS
notes: C-term myc-His6 tag
B29: 22C712/1-123 (VHH)
VHH: EVQLVESGGGLVQAGGSLGLSCAASGRTFSNYAMGWFRQAPGKEREFVAGISWSGGHTFYADSVKGRFTISRDNTKNTVYLQMNSMRPEDTAVYYCAARLSSVAVASTRYDYWGQGTQVTVSS
notes: C-term myc-His6 tag
B30: 21A81/1-122 (VHH)
VHH: EVQLVESGGGLAQAGGSLRLSCAVFGRSRYGMAWFRRAPGKEREFVAGIAWNGASIGSADSVRGRFTISRDNSENTVYFEMGSLKPEDTAVYYCAICRISWCAGAESDYGYWGQGTQVTVSS
notes: C-term myc-His6 tag
B31: 22B12/1-124 (VHH)
VHH: EVQLVESGGGLVQAGGSLRLSCAASGRTFSSYAMAWFRQAPGKEREFVAGINKSGGITHSADSVKGRFTISRDNAKNTVYLQMNSLKPEDTAVYYCAADAYTVIATLPHEYDYWGQGTQVTVSS
notes: C-term myc-His6 tag
B32: 13G101/1-123 (VHH)
VHH: EVQLVESGGGLVQPGDSLRLSCSASEGTLSRSRVAWFRQAPGKEREFVTVISGVGTSYADSVKGRFTISRDDAKNTVYLQMNSLKAEDTAIYYCAADFRSTWLSSSGSSYTYWGQGTQVTVSS
notes: C-term myc-His6 tag
B33: 13G74/1-125 (VHH)
VHH: EVQLVESGGGLVQAGGSLRLSCATSGRTFSTYASMGWFRQTPGKEREFVAAITSSGSTNYADSVKGRFTISRDNAKNTVYLQMNSLKPEDTAVYYCGARVNYAAYSRLEHDYHYWGQGTQVTVSS
notes: C-term myc-His6 tag
B34: 13G41/1-121 (VHH)
VHH: EVQLVESGGGLVQPGGSLTLSCVGSGRRFSADVMGWYRQAPGKQREFVASISSGSAINYADSVKGRFTVSRDNAQNTVYLQMNSLKIEDTGVYYCNARRIVNVEGAYRDYWGQGTQVTVSS
notes: C-term myc-His6 tag
B35: 13F71/1-123 (VHH)
VHH: EVQLVESGGGLVQAGGSLRLSCVASGRTFSNYALAWFRQAPGKEREFVAAINWRSGGSTYYADSVKGRFTISRDNAKNTVYLQMNSLKPEDTAVYYCAADLIVATLPGEYDYWGQGTQVTVSS
notes: C-term myc-His6 tag

Molecular target: T1, recombinant human ErbB2/Fc chimera (human, UniProt P04626 23-652)
T1 construct: bought from R&D Systems; also called rhErbB2-Fc; rhErb2-Fc; Fc part of the bought chimera not given; not described
Test: ELISA, coated ErbB2/Fc

Binding result, binds:
B1
B2
B3
B4
B5
B6
B7
B8
B9
B10
B11
B12
B13
B14
B15
B16
B17
B18
B19
B20
B21
B22
B23
B24
B25
B26
B27
B28
B29
B30
B31
B32
B33
B34
B35
